*1 amine or outer side, *2 acyl side, *3 side chain or, on linkers, in order; H or OH if unused. Where no end group is shown, it is not given here. Side-chain parts run from the residue outwards. The star is where a group is joined. Decanoyl(10-(4-HOOC-PhO)) = O=C(O)c1ccc(OCCCCCCCCCC(=O)*)cc1; γGlu = O=C(O)[C@H](CCC(=O)[*:2])N[*:1]; AEEA = NCCOCCOCC(=O)O
Columns and labels:
[1] = target: T1, human GLP-1 receptor (human, UniProt P43220 24-463); experiment: cell-based or functional assay
[2] = target: T1, human GLP-1 receptor; experiment: cell-based or functional assay; remark: listed apart in the source
[3] = target: T1, human GLP-1 receptor; experiment: SPA, displacement of 125I-GLP-1(7-36)NH2, BHK membranes, 0.001% HSA
Protocol: Test compounds, membranes, SPA-particles and [¹²⁵I] ]-GLP-1(7-36)NH₂ were diluted in assay buffer. 50 ul (micro liter) buffer (“low albumin” experiment containing 0.001% HSA) was added to Optiplate, and 25 ul of test compounds were added. 5-10 μg membrane protein/sample was added (50 μl) corresponding to 0.1-0.2 mg protein/ml (to be preferably optimised for each membrane preparation). SPA-particles (Wheatgerm agglutinin SPA beads, Perkin Elmer, #RPNQ0001) were added in an amount of 0.5 mg/well (50 μl). The incubation was started with [¹²⁵I]-GLP-1]-(7-36)NH₂ (final concentration 0.06 nM corresponding to 49.880 DPM, 25 μl). The plates were sealed with PlateSealer and incubated for 120 minutes at 30° C. while shaking. The plates were centrifuged (1500 rpm, 10 min) and counted in Topcounter.
The IC₅₀ value was read from the curve as the concentration which displaces 50% of ¹²⁵I-GLP-1 from the receptor.

Binder	In vitro potency (AlphaScreen cAMP; membranes) EC50 [1] [nM]	In vitro potency (CRE-luciferase) low albumin EC50 [2] [nM]	IC50 [3] [nM]
HAEGTFTSDVSSYLEGQAAK([AEEA-AEEA-γGlu-Decanoyl(10-(4-HOOC-PhO))])EFIAWLVRGRK([AEEA-AEEA-γGlu-Decanoyl(10-(4-HOOC-PhO))])E [Comparative compound of Example 4a: Compound of Example 46, Chem. 65, in WO 2011/080103]	0.101	0.04	2.77
HAEGTFTSDVSK([Gly-Ser-Ser-Gly-Ser-Ser-γGlu-Decanoyl(10-(4-HOOC-PhO))])YLEEQAAK([Gly-Ser-Ser-Gly-Ser-Ser-γGlu-Decanoyl(10-(4-HOOC-PhO))])EFIAWLVQGRG	0.095	0.0053	1.63

Reference: US20170145069A1 (Novo Nordisk, published 2017)
